# Reference: article PMC3906126 (Biochemistry, 2013)
# T1: WW1 domain of WWOX (residues 16–50) (human, UniProt Q9NZC7 16-50)
# T1 chain (looked up): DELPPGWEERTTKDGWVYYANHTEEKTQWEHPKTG
# T2: WW1–WW2 tandem module of WWOX (residues 16–91) (human, UniProt Q9NZC7 16-91)
# T2 sequence (looked up): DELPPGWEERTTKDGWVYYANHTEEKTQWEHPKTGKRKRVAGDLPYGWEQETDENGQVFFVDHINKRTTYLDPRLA
# B1: ErbB4_PY1 peptide (12-mer spanning the PY1 PPXY motif of the ICD of ErbB4) (peptide)
# chain: FNIPPPIYTSRA
# B2: ErbB4_PY2 peptide (12-mer spanning the PY2 PPXY motif of the ICD of ErbB4) (peptide)
# chain: GHSPPPAYTPMS
# What was measured:
# Assay in all cases: ITC
# [1] = target: T1, WW1 domain of WWOX (residues 16–50)
# [2] = target: WW2W domain of WWOX (WW2 domain, residues 57–91, with the Y85W substitution) (human, UniProt Q9NZC7 57-91, Y85W)
# Chain of WW2W domain of WWOX (WW2 domain, residues 57–91, with the Y85W substitution) (Q9NZC7 57-91 Y85W): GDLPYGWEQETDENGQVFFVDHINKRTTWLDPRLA
# [3] = target: T2, WW1–WW2 tandem module of WWOX (residues …)
Kd [1],dH [1],Kd [2],dH [2],Kd [3],dH [3],Binder
383 µM,-6.88 kcal/mol,680 µM,-4.74 kcal/mol,170 µM,-7.25 kcal/mol,B1
362 µM,-3.66 kcal/mol,620 µM,-8.08 kcal/mol,175 µM,-4.88 kcal/mol,B2
